From paper PMC4593522, “Development of a Radiolabeled Peptide-Based Probe Targeting MT1-MMP for Breast Cancer Detection” (PLoS ONE, 2015)
Read-outs that look alike come from different tables or passages of the source. Square brackets hold non-standard residues; d marks the D form. Peptide text beside a SMILES is read from it. * marks the point of attachment. HYNIC = NNc1ccc(C(=O)*)cn1; AEEA = NCCOCCOCC(=O)O

Experiments:
[1] = In vivo biodistribution study (ex vivo organ counting); set-up: species or system mice; details: female, mouse, iv, total radioactivity, mean ± SD, n = 3; for tissue to tissue ratio at 2 h / tissue to tissue ratio at 4 h / tissue to tissue ratio at 0.5 h / tissue to tissue ratio at 1 h: athymic nude; for tissue to tissue ratio at 2 h: 2h after i.v.; for tissue to tissue ratio at 4 h: 4h after i.v.; for tissue to tissue ratio at 0.5 h: 0.5h after i.v.; for tissue to tissue ratio at 1 h: 1h after i.v.
Procedure: All animal experiments were approved by Jilin University Health Science Center Animal Care and Use Committee. Human breast carcinoma cell line MDA-MB-231 with high MT1-MMP expression and human lung adenocarcinomaepithelial cell line A549 with low MT1-MMP expression were cultured in DMEM medium containing 10% (v/v) fetal bovine serum (Invitrogen) supplemented with penicillin (100 μg/mL) and streptomycin (100 μg/mL) at 37°C with 5% CO2. MDA-MB-231 and A549 tumor models were established by subcutaneous injection of 5×10^6 cells into the upper right front flank of female athymic nude mice (Department of Experimental Animal, Peking University Health Science Center). Tumor growth was monitored by caliper measurements three times a week after the tumors are palpable. The mice were used for SPET/CT imaging when the tumor volume reached about 200 mm3 (about 14 days after tumor inoculations). The tumor volume was determined as the formula: V = a × (b^2)/2, where a and b are the length and width of each tumor in mm respectively. During the injection and image acquisition process, the mice were anesthetized with 2.5% isoflurane in oxygen delivered at a flow rate of 1.5 L/min.
Animals were divided into 4 groups (n = 3) for 4 time points with approximately equal distribution of tumor sizes on the day before the study. At 0.5, 1, 2, and 4 h after intravenous administration of [^99mTc]-(HYNIC-AF7P)(tricine)(TPPTS), MDA-MB-231 tumor bearing mice were euthanized. […] The organ uptake was calculated as a percentage of the injected dose per gram of wet tissue (%ID/g).

[2] = In vitro solution stability in the presence of excess cysteine (radio-HPLC); assay type: physicochemical; details: 1 mg/mL cysteine, pH = 7.4, 37°C, mean ± SD
Procedure: HYNIC-AF7p solution (20 μL, 60 μg/mL in H2O), of tricine solution (100 μL, 100 mg/mL in 25 mM succinate buffer, pH 5.0), SnCl2 solution (10 μL, 3 mg/mL in 0.1 M HCl) and Na^99mTcO4 (100 μL, 370 MBq) in saline were added into a 5 mL Eppendorf tube. The reaction mixture was kept at room temperature for 10 min. To the reaction mixture above was added 100 μL of the TPPTS solution (50 mg/mL in 25 mM succinate buffer, pH 5.0). The vial containing the reaction mixture was sealed, cramped, and heated at 90°C for 30 min. After cooling to room temperature, sample was analyzed by radio-HPLC. The radio-HPLC method used a HP Hewlett Packard Series 1100 HPLC system equipped with a Radioflow Detector LB509 and a reversed-phase Zorbax SB-C18 column (4.6 mm × 250 mm, 5 μm). The flow rate was 1 mL/min. The gradient mobile phase started with 90% solvent A (0.1% TFA in water) and 10% solvent B (0.1% TFA in acetonitrile) to 30% solvent A and 70% solvent B at 24 min to 0% solvent A and 100% solvent B at 27 min, followed with 90% solvent A and 10% solvent B at 30 min. […]
100 μL of [^99mTc]-(HYNIC-AF7P)(tricine)(TPPTS) was added to either 0.9% physiological saline or 1 mg/mL cysteine solution. […] After 1 h, 2 h, 3 h, 4 h, 5 h and 6 h incubation, the radiochemical purity for [^99mTc]-(HYNIC-AF7P)(tricine)(TPPTS) at each time point was detected by radio-HPLC as described above.

[3] = tumor and intestine, read-out: Tumor/Intestine ratio
[4] = tumor and pancreas, read-out: Tumor/Pancreas ratio
[5] = tumor/blood, read-out: Tumor/Blood ratio
[6] = tumor/bone, read-out: Tumor/Bone ratio
[7] = tumor/heart, read-out: Tumor/Heart ratio
[8] = tumor/kidney, read-out: Tumor/Kidney ratio
[9] = tumor/liver, read-out: Tumor/Liver ratio
[10] = tumor/lung, read-out: Tumor/Lung ratio
[11] = tumor/muscle, read-out: Tumor/Muscle ratio
[12] = tumor/spleen, read-out: Tumor/Spleen ratio

Compound: CC(C)C[C@H](NC(=O)[C@H](Cc1ccccc1)NC(=O)[C@@H](NC(=O)[C@H](CCCCN)NC(=O)[C@@H](NC(=O)[C@H](CC(N)=O)NC(=O)[C@H](Cc1c[nH]cn1)NC(=O)[C@H](CC(C)C)NC(=O)[C@H](Cc1c[nH]cn1)NC(=O)[C@H](CCCCN)NC(=O)[C@H](Cc1c[nH]c2ccccc12)NC(=O)[C@H](Cc1c[nH]cn1)NC(=O)c1ccc(NN)nc1)[C@@H](C)O)[C@@H](C)O)C(=O)NCCOCCOCC(=O)O [[^99mTc]-(HYNIC-AF7P)(tricine)(TPPTS), metal not drawn] ({HYNIC}-HWKHLHNTKTFL[AEEA]-OH)
- tissue to tissue ratio at 2 h [1, 3]: 1.44 ± 0.13
- tissue to tissue ratio at 4 h [1, 3]: 0.93 ± 0.12
- tissue to tissue ratio at 4 h ([1]; tumor and liver, read-out: Tumor/Liver ratio): 0.41 ± 0.04
- tissue to tissue ratio at 0.5 h [1, 4]: 4.4 ± 0.43
- tissue to tissue ratio at 1 h [1, 4]: 4.98 ± 0.16
- tissue to tissue ratio at 2 h [1, 4]: 6.28 ± 0.7
- tissue to tissue ratio at 4 h [1, 4]: 5.67 ± 0.82
- tissue to tissue ratio at 0.5 h [1, 5]: 9.27 ± 0.28
- tissue to tissue ratio at 1 h [1, 5]: 9.36 ± 0.73
- tissue to tissue ratio at 2 h [1, 5]: 11.1 ± 0.74
- tissue to tissue ratio at 4 h [1, 5]: 5.54 ± 0.55
- tissue to tissue ratio at 0.5 h [1, 6]: 4.21 ± 0.2
- tissue to tissue ratio at 1 h [1, 6]: 4.5 ± 0.51
- tissue to tissue ratio at 2 h [1, 6]: 5.01 ± 0.38
- tissue to tissue ratio at 4 h [1, 6]: 2.6 ± 0.15
- tissue to tissue ratio at 0.5 h [1, 7]: 1.49 ± 0.23
- tissue to tissue ratio at 1 h [1, 7]: 1.56 ± 0.26
- tissue to tissue ratio at 2 h [1, 7]: 2.23 ± 0.2
- tissue to tissue ratio at 4 h [1, 7]: 1.66 ± 0.21
- tissue to tissue ratio at 0.5 h [1, 8]: 0.38 ± 0.01
- tissue to tissue ratio at 1 h [1, 8]: 0.35 ± 0.01
- tissue to tissue ratio at 2 h [1, 8]: 0.45 ± 0.04
- tissue to tissue ratio at 4 h [1, 8]: 0.24 ± 0.02
- tissue to tissue ratio at 0.5 h [1, 9]: 0.65 ± 0.06
- tissue to tissue ratio at 1 h [1, 9]: 0.67 ± 0.07
- tissue to tissue ratio at 2 h [1, 9]: 0.75 ± 0.05
- tissue to tissue ratio at 0.5 h [1, 10]: 1.6 ± 0.18
- tissue to tissue ratio at 1 h [1, 10]: 1.81 ± 0.34
- tissue to tissue ratio at 2 h [1, 10]: 2.17 ± 0.14
- tissue to tissue ratio at 4 h [1, 10]: 1.51 ± 0.3
- tissue to tissue ratio at 0.5 h [1, 11]: 3.77 ± 0.42
- tissue to tissue ratio at 1 h [1, 11]: 3.86 ± 0.75
- tissue to tissue ratio at 2 h [1, 11]: 4.17 ± 0.49
- tissue to tissue ratio at 4 h [1, 11]: 2.02 ± 0.09
- tissue to tissue ratio at 0.5 h [1, 12]: 3.75 ± 0.46
- tissue to tissue ratio at 1 h [1, 12]: 3.66 ± 0.58
- tissue to tissue ratio at 2 h [1, 12]: 3.94 ± 0.57
- tissue uptake at 0.5 h ([1]; tumor, 0.5 h after i.v. administration, MDA-MB-231 xenograft, BALB/c nude mice, read-out: Tumor uptake (biodistribution)): 3.37 ± 0.27 %ID/g
- tissue uptake at 1 h ([1]; tumor, 1 h after i.v. administration, MDA-MB-231 xenograft, BALB/c nude mice, read-out: Tumor uptake (biodistribution)): 2.59 ± 0.21 %ID/g
- tissue uptake at 2 h ([1]; tumor, 2 h after i.v. administration, MDA-MB-231 xenograft, BALB/c nude mice, read-out: Tumor uptake (biodistribution)): 2.18 ± 0.11 %ID/g
- tissue uptake at 4 h ([1]; tumor, 4 h after i.v. administration, MDA-MB-231 xenograft, BALB/c nude mice, read-out: Tumor uptake (biodistribution)): 1.05 ± 0.07 %ID/g
- original form (radiochemical purity) in solution containing excess cysteine ([2]; after 6 hours incubation): 94.2 ±1.72%
- original form (radiochemical purity) in solution containing excess cysteine ([2]; at the beginning): 96.8 ± 1.52%
